In EP1616575B1 (ZymoGenetics, Inc., dated 2012):

Assays:
[1] = molecular target: T1, IL-20RA (human, UniProt Q9UHF4 30-553); test: radiolabeled IL-20 binding to BHK cells stably transfected with IL-20RA alone
T1 construct: Expressed alone on stably transfected BHK cells; also called Zcytor7; IL-20RA receptor subunit alone
T1 sequence: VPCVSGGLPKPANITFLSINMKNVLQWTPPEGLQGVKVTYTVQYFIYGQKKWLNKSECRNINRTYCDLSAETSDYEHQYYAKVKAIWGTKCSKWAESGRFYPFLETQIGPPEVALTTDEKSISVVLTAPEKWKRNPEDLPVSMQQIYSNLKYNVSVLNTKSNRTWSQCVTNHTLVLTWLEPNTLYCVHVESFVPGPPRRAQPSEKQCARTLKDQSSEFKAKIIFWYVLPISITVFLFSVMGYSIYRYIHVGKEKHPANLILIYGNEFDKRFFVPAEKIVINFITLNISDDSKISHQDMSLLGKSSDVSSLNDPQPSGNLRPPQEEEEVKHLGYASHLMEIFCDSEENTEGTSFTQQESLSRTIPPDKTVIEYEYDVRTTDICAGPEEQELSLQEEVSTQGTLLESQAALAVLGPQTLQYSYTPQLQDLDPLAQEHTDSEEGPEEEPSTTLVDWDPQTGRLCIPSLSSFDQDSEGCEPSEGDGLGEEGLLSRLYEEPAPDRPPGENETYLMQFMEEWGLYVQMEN

[2] = molecular target: T2, IL-20RB (human, UniProt Q6UXL0 30-311); test: radiolabeled IL-20 binding to BHK cells stably transfected with IL-20RB alone
T2 construct: Expressed alone on stably transfected BHK cells; also called IL-20RB receptor subunit alone
T2 sequence: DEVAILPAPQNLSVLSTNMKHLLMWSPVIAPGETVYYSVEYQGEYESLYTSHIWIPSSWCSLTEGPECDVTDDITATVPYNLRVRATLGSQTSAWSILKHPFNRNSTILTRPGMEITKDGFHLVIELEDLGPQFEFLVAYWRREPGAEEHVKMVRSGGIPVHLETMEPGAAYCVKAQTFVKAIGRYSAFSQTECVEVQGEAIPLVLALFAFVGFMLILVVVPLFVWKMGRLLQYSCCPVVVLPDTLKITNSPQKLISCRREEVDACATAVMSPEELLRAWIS

[3] = molecular target: T3, IL-20RA/IL-20RB heterodimeric receptor (human, UniProt Q9UHF4 30-553; Q6UXL0 30-311); test: 125I-IL-20 binding to BHK cells stably transfected with IL-20RA and IL-20RB
T3 construct: Both subunits co-expressed on cells: transfected COS, BHK and BaF3 cells, and endogenous on HaCaT keratinocytes; also called IL-20 receptor; IL-20RB-IL-20RA heterodimer
T3 sequence 1: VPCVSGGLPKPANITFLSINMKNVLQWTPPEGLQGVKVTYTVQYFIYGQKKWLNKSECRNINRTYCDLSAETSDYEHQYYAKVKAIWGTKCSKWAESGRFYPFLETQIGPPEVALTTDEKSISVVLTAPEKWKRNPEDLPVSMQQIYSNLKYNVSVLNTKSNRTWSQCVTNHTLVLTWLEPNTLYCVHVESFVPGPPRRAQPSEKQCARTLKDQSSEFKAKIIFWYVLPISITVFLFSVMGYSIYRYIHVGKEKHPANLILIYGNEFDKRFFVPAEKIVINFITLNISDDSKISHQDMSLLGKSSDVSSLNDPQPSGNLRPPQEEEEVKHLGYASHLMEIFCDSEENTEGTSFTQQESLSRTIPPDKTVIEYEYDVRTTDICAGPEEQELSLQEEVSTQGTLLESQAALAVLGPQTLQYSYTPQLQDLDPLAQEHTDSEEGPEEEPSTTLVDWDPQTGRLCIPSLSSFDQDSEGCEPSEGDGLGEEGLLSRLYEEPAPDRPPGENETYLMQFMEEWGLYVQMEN
T3 sequence 2: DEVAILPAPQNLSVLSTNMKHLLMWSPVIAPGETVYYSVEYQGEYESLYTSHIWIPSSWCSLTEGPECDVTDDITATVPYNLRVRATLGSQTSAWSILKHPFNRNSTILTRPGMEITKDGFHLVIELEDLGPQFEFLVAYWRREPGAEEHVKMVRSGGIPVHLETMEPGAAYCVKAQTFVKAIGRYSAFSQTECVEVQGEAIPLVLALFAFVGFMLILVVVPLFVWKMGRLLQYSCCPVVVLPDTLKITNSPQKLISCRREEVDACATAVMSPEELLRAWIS

B1: IL-20 (ligand, UniProt Q9NYY1 25-176, looked up)
chain: LKTLNLGSCVIATNLQEIRNGFSEIRGSVQAKDGNIDIRILRRTESLQDTKPANRCCLLRHLLRLYLDRVFKNYQTPDHYTLRKISSLANSFLTIKKDLRLCHAHMTCHCGEEAMKKYSQILSHFEKLEPQAAVVKALGELDILLQWMEETE
notes: also called Zcyto10; biotin-labeled IL-20 protein
binding result [1]: no binding
binding result [2]: no binding
Kd [3]: ~1.5 nM
